T1: PYR1^CA3 (H60P, V83F, F159V), 6xHis fusion
T1 chain: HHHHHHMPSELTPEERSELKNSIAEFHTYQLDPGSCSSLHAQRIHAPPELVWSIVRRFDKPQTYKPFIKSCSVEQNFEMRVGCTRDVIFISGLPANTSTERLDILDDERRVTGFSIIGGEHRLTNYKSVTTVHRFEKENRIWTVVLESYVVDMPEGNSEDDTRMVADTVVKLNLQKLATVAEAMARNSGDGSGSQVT

T2: PYR1^CA4 (H60P, V83F, F159V, M158I), 6xHis fusion
T2 chain: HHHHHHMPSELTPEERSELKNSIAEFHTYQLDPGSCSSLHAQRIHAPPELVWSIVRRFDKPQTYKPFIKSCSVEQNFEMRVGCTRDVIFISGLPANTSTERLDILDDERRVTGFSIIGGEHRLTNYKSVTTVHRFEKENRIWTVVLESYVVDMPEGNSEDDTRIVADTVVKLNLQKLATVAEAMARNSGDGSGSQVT


Assays:
[1] = molecular target: T1, PYR1^CA3 (H60P, V83F, F159V), 6xHis …
[2] = molecular target: T2, PYR1^CA4 (H60P, V83F, F159V, M158I), …

Row | Protein | PP2C activity, % of control, pNPP hydrolysis, in the absence of ABA [1] | PP2C activity, % of control, pNPP hydrolysis, in the absence of ABA [2]
1 | 6xHis-SUMO-ABI1 (protein) HHHHHHSDSEVNQEAKPEVKPEVKPETHINLKVSDGSSEIFFKIKKTTPLRRLMEAFAKRQGKEMDSLRFLYDGIRIQADQTPEDLDMEDNDIIEAHREQIGGMEEVSPAIAGPFRPFSETQMDFTGIRLGKGYCNNQYSNQDSENGDLMVSLPETSSCSVSGSHGSESRKVLISRINSPNLNMKESAAADIVVVDISAGDEINGSDITSEKKMISRTESRSLFEFKSVPLYGFTSICGRRPEMEDAVSTIPRFLQSSSGSMLDGRFDPQSAAHFFGVYDGHGGSQVANYCRERMHLALAEEIAKEKPMLCDGDTWLEKWKKALFNSFLRVDSEIESVAPETVGSTSVVAVVFPSHIFVANCGDSRAVLCRGKTALPLSVDHKPDREDEAARIEAAGGKVIQWNGARVFGVLAMSRSIGDRYLKPSIIPDPEVTAVKRVKEDDCLILASDGVWDVMTDEEACEMARKRILLWHKKNAVAGDASLLADERRKEGKDPAAMSAAEYLSKLAIQRGSKDNISVVVVDLKPRRKLKSKPLN | both the triple and quadruple mutants dramatically increased basal PYR1 activity relative to wild-type PYR1 | both the triple and quadruple mutants dramatically increased basal PYR1 activity relative to wild-type PYR1
2 | 6xHis-SUMO-ABI2 (protein) HHHHHHSDSEVNQEAKPEVKPEVKPETHINLKVSDGSSEIFFKIKKTTPLRRLMEAFAKRQGKEMDSLRFLYDGIRIQADQTPEDLDMEDNDIIEAHREQIGGMDEVSPAVAVPFRPFTDPHAGLRGYCNGESRVTLPESSCSGDGAMKDSSFEINTRQDSLTSSSSAMAGVDISAGDEINGSDEFDPRSMNQSEKKVLSRTESRSLFEFKCVPLYGVTSICGRRPEMEDSVSTIPRFLQVSSSSLLDGRVTNGFNPHLSAHFFGVYDGHGGSQVANYCRERMHLALTEEIVKEKPEFCDGDTWQEKWKKALFNSFMRVDSEIETVAHAPETVGSTSVVAVVFPTHIFVANCGDSRAVLCRGKTPLALSVDHKPDRDDEAARIEAAGGKVIRWNGARVFGVLAMSRSIGDRYLKPSVIPDPEVTSVRRVKEDDCLILASDGLWDVMTNEEVCDLARKRILLWHKKNAMAGEALLPAEKRGEGKDPAAMSAAEYLSKMALQKGSKDNISVVVVDLKGIRKFKSKSLN | both the triple and quadruple mutants dramatically increased basal PYR1 activity relative to wild-type PYR1 | both the triple and quadruple mutants dramatically increased basal PYR1 activity relative to wild-type PYR1

Source: patent publication US20140259226
